# Assay results reported in patent publication US8815798B2, “Insulin analogues containing additional disulfide bonds” (priority 2010, dated 2014).
# Legend:
# Human Insulin Receptor A = molecular target: T1, Human Insulin Receptor A (Homo sapiens, UniProt P06213); assay: Insulin receptor binding assay (on solubilised insulin receptor), SPA; conditions: SPA competition with [125I]A14Tyr-labelled insulin, solubilized human IR-A
# T1 construct: solubilized human IR (holoreceptor); made in house; host or cells: baby hamster kidney (BHK) cells stably transfected with pZem vector containing the human IR-A insert
# T1 sequence (P06213 28-746 isoform P06213-2 limits assumed): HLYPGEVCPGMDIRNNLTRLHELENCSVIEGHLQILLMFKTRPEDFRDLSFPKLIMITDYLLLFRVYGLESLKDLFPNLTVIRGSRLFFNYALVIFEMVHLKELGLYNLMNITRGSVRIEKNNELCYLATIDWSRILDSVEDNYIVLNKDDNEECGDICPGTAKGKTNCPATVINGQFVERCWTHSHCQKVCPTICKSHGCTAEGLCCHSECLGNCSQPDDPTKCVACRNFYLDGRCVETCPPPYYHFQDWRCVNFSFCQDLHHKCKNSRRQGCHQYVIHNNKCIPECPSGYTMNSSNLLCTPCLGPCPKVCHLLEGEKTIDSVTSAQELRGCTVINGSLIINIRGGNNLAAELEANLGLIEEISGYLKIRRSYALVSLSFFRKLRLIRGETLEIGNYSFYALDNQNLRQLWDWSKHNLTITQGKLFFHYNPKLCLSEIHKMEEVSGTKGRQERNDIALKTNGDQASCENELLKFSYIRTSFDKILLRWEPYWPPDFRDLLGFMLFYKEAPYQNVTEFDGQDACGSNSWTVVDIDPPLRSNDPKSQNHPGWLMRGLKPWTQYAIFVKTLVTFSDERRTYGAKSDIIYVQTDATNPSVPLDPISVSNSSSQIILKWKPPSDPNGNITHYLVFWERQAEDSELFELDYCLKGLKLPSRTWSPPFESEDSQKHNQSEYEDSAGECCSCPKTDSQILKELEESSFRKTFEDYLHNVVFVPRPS
# T1 sequence (P06213 763-1382 partner limits assumed): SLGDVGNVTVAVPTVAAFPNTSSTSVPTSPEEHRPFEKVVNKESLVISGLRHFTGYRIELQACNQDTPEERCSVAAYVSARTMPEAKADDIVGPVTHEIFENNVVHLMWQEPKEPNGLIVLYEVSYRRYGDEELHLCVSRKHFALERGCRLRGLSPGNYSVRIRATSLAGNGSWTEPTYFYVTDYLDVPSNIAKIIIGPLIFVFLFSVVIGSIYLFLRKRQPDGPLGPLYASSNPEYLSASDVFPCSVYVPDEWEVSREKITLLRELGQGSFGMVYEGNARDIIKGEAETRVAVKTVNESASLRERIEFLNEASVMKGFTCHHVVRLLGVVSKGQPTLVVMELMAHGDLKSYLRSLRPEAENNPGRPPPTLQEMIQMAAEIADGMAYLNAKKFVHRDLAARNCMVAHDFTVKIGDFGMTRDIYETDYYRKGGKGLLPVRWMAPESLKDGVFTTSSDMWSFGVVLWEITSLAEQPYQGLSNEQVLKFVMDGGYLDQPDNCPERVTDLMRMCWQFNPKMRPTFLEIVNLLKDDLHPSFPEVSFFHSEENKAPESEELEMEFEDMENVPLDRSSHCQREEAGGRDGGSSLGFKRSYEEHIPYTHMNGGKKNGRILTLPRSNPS
# Protocol: (2008), Biochemistry, 47, 4743-4751). Competition binding experiments were performed in 96-well plates (polystyrene Optiplate-96, PerkinElmer) on an Eppendorf epMotion 5075 robot using solubilized human IR (holoreceptor) semipurified by wheat germ agglutinin purification from baby hamster kidney (BHK) cells, which were stably transfected with the pZem vector containing the human IR-A or IR-B insert. […] A reagent mix consisting of SPA beads (SPA PVT Antibody-Binding Beads, Anti-Mouse Reagent Cat. No. […] (2008), Biochemistry, 47, 4743-4751). Competition binding experiments were performed in 96-well plates (polystyrene OPTIPLATE-96TM, PerkinElmer) on an Eppendorf EPMOTION® 5075 robot using solubilized human IR (holoreceptor) semipurified by wheat germ agglutinin purification from baby hamster kidney (BHK) cells, which were stably transfected with the pZem vector containing the human IR-A or IR-B insert. […] A reagent mix consisting of SPA beads (SPA PVT Antibody-Binding Beads, Anti-Mouse Reagent Cat. No.
# Primary rat adipocytes = assay: Lipogenesis in rat adipocytes; assay type: cell-based; conditions: 3H-glucose conversion into extractable lipids; relative potency compared to human insulin
# Description: As a measure of in vitro potency of the insulins of the invention, lipogenesis can be used.
# The labelled glucose is converted into extractable lipids in a dose dependent way, resulting in full dose response curves.
# [1] = Hydrophobicity by isocratic reverse phase HPLC (k'rel); assay type: physicochemical; conditions: hydrophobicity relative to human insulin (k'rel HI = 1); isocratic RP-HPLC, pH 7.3
# Protocol: The hydrophobicity, k′rel, is calculated as: k′relderiv=((tderiv−t0)/(trel−t0))*k′relref. Using HI as reference: k′relref=k′relHI=1. The void time of the HPLC system, t0, is determined by injecting 5 μl of 0.1 mM NaNO3. Running conditions:
# Column: Lichrosorb RP-C18, 5 μm, 4×250 mm
# Buffer A: 0.1 M natrium phosphate pH 7.3, 10 vol % CH3CN
# After running an initial gradient, the isocratic level for running the analogue and reference (for example HI) is chosen, and the elution times of the analogue and reference under isocratic conditions are used in the above equation to calculate k′relderiv.
# [2] = Thioflavin T (ThT) fibrillation assay; assay type: physicochemical; conditions: mean of four samples with standard deviation, 37° C., 960 rpm
# Description: General Procedure for Thioflavin T (ThT) Fibrillation Assay:
# This has traditionally been measured by visual inspection of the sample. However, that kind of measurement is very subjective and depending on the observer. Therefore the application of a small molecule indicator probe is much preferred. […] The time course for fibril formation can be described by a sigmoidal curve with the following expression (Nielsen at al. Biochemistry 40, 6036-6046, 2001):
# Here, F is the ThT fluorescence at the time t. The constant t0 is the time needed to reach 50% of maximum fluorescence.
# Samples were prepared freshly before each assay. […] Thioflavin T was added to the samples from a stock solution in water to a final concentration of 1 μM. Sample aliquots of 200 μl were placed in a 96 well microtiter plate (Packard Optiplate™-96, white polystyrene). Usually four replica of each sample (corresponding to one test condition) were placed in one column of wells. The plate was sealed with Scotch Pad (Qiagen).
# The temperature was adjusted to 37° C. […] Fluorescence measurements were done using excitation through a 444 nm filter and measurement of emission through a 485 nm filter.
# Each run was initiated by incubating the plate at the assay temperature for 10 min. The plate was measured every 20 minutes for typically 45 hours. Between each measurement, the plate was shaken and heated as described above.
# The data points are typically a mean of four samples. Only data obtained in the same experiment (i.e. samples on the same plate) are presented in the same graph ensuring a relative measure of fibrillation between the individual samples of one assay rather then comparison between different assays.
# The data set may be fitted to Eq. (1).
substance,measurement,setting,value
"A10C, A21G, B3C, desB27, B28E, desB30 human insulin [Example 23]",Relative Affinity to Human Insulin Receptor A (% HI),Human Insulin Receptor A,20.0 % HI
"A21C, B10E, B26C, desB30 human insulin [Example 78]",Relative Affinity to Human Insulin Receptor A (% HI),Human Insulin Receptor A,10.0 % HI
"A10C, A22K, B3C, desB27, desB30 human insulin [Example 28]",Lipogenesis (potency rel to HI),Primary rat adipocytes,25.3%
same,k′-rel (human insulin),[1],0.0810
same,"ThT fluorescence, 0 h",[2]; 0 h,35.8 ± 0.9
same,"ThT fluorescence, 2 h",[2]; 2 h,29.4 ± 1
same,"ThT fluorescence, 20 h",[2]; 20 h,27.6 ± 0.8
same,"ThT fluorescence, 45 h",[2]; 45 h,25 ± 0.7
"A10C, A21G, B2C, B3E, B28E, desB30 human insulin [Example 17]",Relative Affinity to Human Insulin Receptor A (% HI),Human Insulin Receptor A,80.0 % HI
